Laboratory results: US20250076311A1 (Chugai, published 2025)

Legend:
[1] = target: T1, cynomolgus monkey FcγRIIIaS extracellular domain with C-terminal His-tag (cynomolgus monkey, UniProt A3RFZ7 21-206 (rhesus entry)); experiment: SPR (BIACORE); KD of SG1 / KD of variant
T1 construct: also called cyno FcgRIIIaS; cynoFcγRIIIaS; not shown: His-tag added to the C-terminus
Experimental: The kinetic analysis of interactions between these antibodies and FcγR was carried out using BIACORE® T200 or BIACORE® 4000 (GE Healthcare). HBS-EP+ (GE Healthcare) was used as the running buffer, and the measurement temperature was set to 25° C. […] After the measurement, the antibody captured on the chip was washed off by allowing reaction with 10 mM glycine-HCl, pH1.5 and 25 mM NaOH so that the chip was regenerated and used repeatedly. The sensorgrams obtained as measurement results were analyzed by the 1:1 Langmuir binding model using the BIACORE® Evaluation Software to calculate the binding rate constant ka (L/mol/s) and dissociation rate constant kd (1/s), and the dissociation constant KD (mol/L) was calculated from these values. […] Regarding such interactions, KD values were calculated using the following 1:1 binding model described in BIACORE® T100 Software Handbook BR1006-48 Edition AE.

[2] = target: T1, cynomolgus monkey FcγRIIIaS …; experiment: SPR (BIACORE), antibody captured, FcgR analyte
[3] = target: T2, human FcγRIIaH extracellular domain with C-terminal His-tag (human, UniProt P12318 34-217); experiment: SPR (BIACORE), antibody captured, FcgR analyte
T2 construct: also called human FcgRIIaH; FcγRIIa type H; not shown: His-tag added to the C-terminus
T2 sequence: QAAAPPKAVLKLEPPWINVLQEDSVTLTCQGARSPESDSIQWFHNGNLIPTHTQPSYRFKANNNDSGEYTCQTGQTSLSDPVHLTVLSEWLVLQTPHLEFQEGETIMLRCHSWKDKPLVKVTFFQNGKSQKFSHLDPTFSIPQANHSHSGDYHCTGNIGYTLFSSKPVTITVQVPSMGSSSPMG

[4] = target: T3, human FcγRIIIaV extracellular domain with C-terminal His-tag (human, UniProt P08637 17-208); experiment: SPR (BIACORE), antibody captured, FcgR analyte
T3 construct: also called human FcgRIIIaV; not shown: His-tag added to the C-terminus
T3 sequence (P08637 17-208 F176V): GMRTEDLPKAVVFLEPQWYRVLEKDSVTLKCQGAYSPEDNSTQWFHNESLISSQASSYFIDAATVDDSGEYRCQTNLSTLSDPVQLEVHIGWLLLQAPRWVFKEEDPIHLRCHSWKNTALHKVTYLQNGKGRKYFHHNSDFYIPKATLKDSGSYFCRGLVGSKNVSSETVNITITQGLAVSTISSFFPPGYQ

[5] = target: T4, cynomolgus monkey FcγRIIa3 extracellular domain with C-terminal His-tag (cynomolgus monkey); experiment: SPR (BIACORE), antibody captured, FcgR analyte
T4 construct: also called cyno FcgRIIa3; cynoFcγRIIa3; not shown: His-tag added to the C-terminus
T4 chain: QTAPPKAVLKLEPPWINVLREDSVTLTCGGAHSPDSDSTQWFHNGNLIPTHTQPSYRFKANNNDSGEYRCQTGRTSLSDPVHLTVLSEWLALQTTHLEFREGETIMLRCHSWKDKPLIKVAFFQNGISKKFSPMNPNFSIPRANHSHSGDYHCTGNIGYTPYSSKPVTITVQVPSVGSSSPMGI

[6] = target: T5, human FcγRIIb extracellular domain with C-terminal His-tag (human, UniProt P31994 43-217); experiment: SPR (BIACORE), antibody captured, FcgR analyte
T5 construct: also called human FcgRIIb; not shown: His-tag added to the C-terminus
T5 sequence: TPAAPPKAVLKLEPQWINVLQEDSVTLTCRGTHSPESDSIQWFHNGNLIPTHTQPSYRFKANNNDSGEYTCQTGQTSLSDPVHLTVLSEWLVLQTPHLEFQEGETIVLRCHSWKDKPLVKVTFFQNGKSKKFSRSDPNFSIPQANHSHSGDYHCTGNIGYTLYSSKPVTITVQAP

[7] = target: T6, human FcγRIIIaV extracellular domain with C-terminal His-tag (human, UniProt P08637 17-208); experiment: SPR Biacore, antibody captured, FcgR analyte
T6 construct: also called human FcgRIIIaV; not shown: His-tag added to C-terminus
T6 sequence (P08637 17-208 F176V): as the sequence (P08637 17-208 F176V) above

[8] = target: T7, human FcγRIIaR extracellular domain with C-terminal His-tag (human, UniProt P12318 34-217); experiment: SPR (BIACORE), antibody captured, FcgR analyte
T7 construct: also called human FcgRIIaR; FcγRIIa type R; not shown: His-tag added to the C-terminus
T7 chain: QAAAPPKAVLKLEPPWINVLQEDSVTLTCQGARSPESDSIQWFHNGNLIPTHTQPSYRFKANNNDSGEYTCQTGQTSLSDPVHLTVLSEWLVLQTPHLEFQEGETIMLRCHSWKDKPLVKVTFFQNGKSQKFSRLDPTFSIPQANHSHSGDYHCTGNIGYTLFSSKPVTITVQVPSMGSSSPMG

B1: M103205H795-MY051/M103202L889-SK1 (antibody, human IgG1, kappa, name in EU numbering)
heavy: QVTLKESGPVLVKPTETLTLTCTVSGIDLSHDDISWVRQAPGKGLEWVGIISYAGSTYYASWAKGRLTISKDTSKNQVVLTMTNMDPVDTATYYCARGVPAYSHGGDLWGQGTLVTVSSASTKGPSVFPLAPSSKSTSGGTAALGCLVKDYFPEPVTVSWNSGALTSGVHTFPAVLQSSGLYSLSSVVTVPSSSLGTQTYICNVNHKPSNTKVDKKVEPKSCDKTHTCPPCPAPELLNGPSVFLFPPKPKDTLMISRTPEVTCVVVDVSEEDGEVKFNWYVDGVEVHNAKTKPREEQYNSTYRVVSVLTVLHQDWLNGKEYKCKVSNKALPAPIEKTISKAKGQPREPQVYTLPPSREEMTKNQVSLTCLVKGFYPSDIAVEWESNGQPENNYKTTPPVLDSDGSFFLYSKLTVDKSRWQQGNVFSCSVMHEALHNHYTQKSLSLSP
light: DIVMTQSPATLSLSPGERATLSCTSSQSVYHANWLSWFQQKPGQPPKLLIYWASTLAYGVPSRFSGSGSGTDFTLTISSLQPEDAATYYCAGGYGGGRYAFGQGTKVEIKRTVAAPSVFIFPPSDEQLKSGTASVVCLLNNFYPREAKVQWKVDNALQSGNSQESVTEQDSKDSTYSLSSTLTLSKADYEKHKVYACEVTHQGLSSPVTKSFNRGEC
notes: Fc variant of MS1032LO06-SG1; positions in EU numbering
Question: Which “KD fold (SG1 = 1)” value [1] does the source give for B1 here?
Answer: 0.17 fold

Question: What about the Kd [2] of the same binder?
Answer: 2100 nM

Question: And the Kd [3]?
Answer: 2200 nM

Question: What about the Kd [4] of the same binder?
Answer: 7.4 µM

B2: M103205H795-MY207/M103202L889-SK1 (antibody, human IgG1, kappa, name in EU numbering)
heavy: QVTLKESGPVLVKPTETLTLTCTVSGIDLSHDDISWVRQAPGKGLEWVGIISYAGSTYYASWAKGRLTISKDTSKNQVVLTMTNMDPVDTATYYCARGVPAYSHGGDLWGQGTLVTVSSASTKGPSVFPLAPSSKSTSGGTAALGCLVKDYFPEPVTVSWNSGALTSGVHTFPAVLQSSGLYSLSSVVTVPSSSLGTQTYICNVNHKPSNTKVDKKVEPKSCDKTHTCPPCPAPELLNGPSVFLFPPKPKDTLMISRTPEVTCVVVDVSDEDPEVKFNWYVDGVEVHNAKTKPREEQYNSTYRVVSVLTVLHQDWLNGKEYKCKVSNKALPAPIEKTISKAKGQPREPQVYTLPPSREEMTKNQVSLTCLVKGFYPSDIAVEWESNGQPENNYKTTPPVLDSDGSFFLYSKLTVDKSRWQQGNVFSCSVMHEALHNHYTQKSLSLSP
light: DIVMTQSPATLSLSPGERATLSCTSSQSVYHANWLSWFQQKPGQPPKLLIYWASTLAYGVPSRFSGSGSGTDFTLTISSLQPEDAATYYCAGGYGGGRYAFGQGTKVEIKRTVAAPSVFIFPPSDEQLKSGTASVVCLLNNFYPREAKVQWKVDNALQSGNSQESVTEQDSKDSTYSLSSTLTLSKADYEKHKVYACEVTHQGLSSPVTKSFNRGEC
notes: as for B1
Question: With B2 as the binder, how does the Kd [5] read?
Answer: 6.9 µM

Question: What about the Kd [2] of the same binder?
Answer: 4100 nM

Question: What about the Kd [3] of the same binder?
Answer: 1300 nM

Question: What about the Kd [6] of the same binder?
Answer: 1500 nM

B3: M103205H795-MY204/M103202L889-SK1 (antibody, human IgG1, kappa, name in EU numbering)
heavy: QVTLKESGPVLVKPTETLTLTCTVSGIDLSHDDISWVRQAPGKGLEWVGIISYAGSTYYASWAKGRLTISKDTSKNQVVLTMTNMDPVDTATYYCARGVPAYSHGGDLWGQGTLVTVSSASTKGPSVFPLAPSSKSTSGGTAALGCLVKDYFPEPVTVSWNSGALTSGVHTFPAVLQSSGLYSLSSVVTVPSSSLGTQTYICNVNHKPSNTKVDKKVEPKSCDKTHTCPPCPAPELLNGPVVFLFPPKPKDTLMISRTPEVTCVVVDVSEEDPEVKFNWYVDGVEVHNAKTKPREELYNSTYRVVSVLTVLHQDWLNGKEYKCKVSNKALPKPIEKTISKAKGQPREPQVYTLPPSREEMTKNQVSLTCLVKGFYPSDIAVEWESNGQPENNYKTTPPVLDSDGSFFLYSKLTVDKSRWQQGNVFSCSVMHEALHNHYTQKSLSLSP
light: DIVMTQSPATLSLSPGERATLSCTSSQSVYHANWLSWFQQKPGQPPKLLIYWASTLAYGVPSRFSGSGSGTDFTLTISSLQPEDAATYYCAGGYGGGRYAFGQGTKVEIKRTVAAPSVFIFPPSDEQLKSGTASVVCLLNNFYPREAKVQWKVDNALQSGNSQESVTEQDSKDSTYSLSSTLTLSKADYEKHKVYACEVTHQGLSSPVTKSFNRGEC
notes: as for B1
Question: B3 was tested. Which Kd [2] did it give?
Answer: 3500 nM

Question: And the Kd [6]?
Answer: 1500 nM

Question: What about the Kd [4] of the same binder?
Answer: 11 µM

B4: M103205H795-MY209/M103202L889-SK1 (antibody, human IgG1, kappa, name in EU numbering)
heavy: QVTLKESGPVLVKPTETLTLTCTVSGIDLSHDDISWVRQAPGKGLEWVGIISYAGSTYYASWAKGRLTISKDTSKNQVVLTMTNMDPVDTATYYCARGVPAYSHGGDLWGQGTLVTVSSASTKGPSVFPLAPSSKSTSGGTAALGCLVKDYFPEPVTVSWNSGALTSGVHTFPAVLQSSGLYSLSSVVTVPSSSLGTQTYICNVNHKPSNTKVDKKVEPKSCDKTHTCPPCPAPELLNGPSVFLFPPKPKDTLMISRTPEVTCVVVDVSDEDPEVKFNWYVDGVEVHNAKTKPREELYNSTYRVVSVLTVLHQDWLNGKEYKCKVSNTALPKPIEKTISKAKGQPREPQVYTLPPSREEMTKNQVSLTCLVKGFYPSDIAVEWESNGQPENNYKTTPPVLDSDGSFFLYSKLTVDKSRWQQGNVFSCSVMHEALHNHYTQKSLSLSP
light: DIVMTQSPATLSLSPGERATLSCTSSQSVYHANWLSWFQQKPGQPPKLLIYWASTLAYGVPSRFSGSGSGTDFTLTISSLQPEDAATYYCAGGYGGGRYAFGQGTKVEIKRTVAAPSVFIFPPSDEQLKSGTASVVCLLNNFYPREAKVQWKVDNALQSGNSQESVTEQDSKDSTYSLSSTLTLSKADYEKHKVYACEVTHQGLSSPVTKSFNRGEC
notes: substitutions in EU numbering, introduced into M103205H795-SG1
Question: Which “KD fold (SG1 = 1)” value [7] does the source give for B4 here?
Answer: 0.09 fold

B5: M103205H795-MY115/M103202L889-SK1 (antibody, human IgG1, kappa, name in EU numbering)
heavy: QVTLKESGPVLVKPTETLTLTCTVSGIDLSHDDISWVRQAPGKGLEWVGIISYAGSTYYASWAKGRLTISKDTSKNQVVLTMTNMDPVDTATYYCARGVPAYSHGGDLWGQGTLVTVSSASTKGPSVFPLAPSSKSTSGGTAALGCLVKDYFPEPVTVSWNSGALTSGVHTFPAVLQSSGLYSLSSVVTVPSSSLGTQTYICNVNHKPSNTKVDKKVEPKSCDKTHTCPPCPAPELLNGPSVFLFPPKPKDTLMISRTPEVTCVVVDVAEEDPEVKFNWYVDGVEVHNAKTKPREEQYNSTYRVVSVLTVLHQDWLNGKEYKCKVSNKALPAPIEKTISKAKGQPREPQVYTLPPSREEMTKNQVSLTCLVKGFYPSDIAVEWESNGQPENNYKTTPMVLDSDGSFFLYSKLTVDKSRWQQGNVFSCSVMHEALHNHYTQKSLSLSP
light: DIVMTQSPATLSLSPGERATLSCTSSQSVYHANWLSWFQQKPGQPPKLLIYWASTLAYGVPSRFSGSGSGTDFTLTISSLQPEDAATYYCAGGYGGGRYAFGQGTKVEIKRTVAAPSVFIFPPSDEQLKSGTASVVCLLNNFYPREAKVQWKVDNALQSGNSQESVTEQDSKDSTYSLSSTLTLSKADYEKHKVYACEVTHQGLSSPVTKSFNRGEC
notes: as for B1
Question: How did the “KD fold (SG1 = 1)” value [1] turn out when B5 was run?
Answer: 0.42 fold

Question: And the Kd [5]?
Answer: 7.6 µM

Question: And the Kd [2]?
Answer: 850 nM

Question: And the Kd [6]?
Answer: 320 nM

B6: M103205H795-MY208/M103202L889-SK1 (antibody, human IgG1, kappa, name in EU numbering)
heavy: QVTLKESGPVLVKPTETLTLTCTVSGIDLSHDDISWVRQAPGKGLEWVGIISYAGSTYYASWAKGRLTISKDTSKNQVVLTMTNMDPVDTATYYCARGVPAYSHGGDLWGQGTLVTVSSASTKGPSVFPLAPSSKSTSGGTAALGCLVKDYFPEPVTVSWNSGALTSGVHTFPAVLQSSGLYSLSSVVTVPSSSLGTQTYICNVNHKPSNTKVDKKVEPKSCDKTHTCPPCPAPELLNGPSVFLFPPKPKDTLMISRTPEVTCVVVDVSDEDPEVKFNWYVDGVEVHNAKTKPREELYNSTYRVVSVLTVLHQDWLNGKEYKCKVSNKALPAPIEKTISKAKGQPREPQVYTLPPSREEMTKNQVSLTCLVKGFYPSDIAVEWESNGQPENNYKTTPPVLDSDGSFFLYSKLTVDKSRWQQGNVFSCSVMHEALHNHYTQKSLSLSP
light: DIVMTQSPATLSLSPGERATLSCTSSQSVYHANWLSWFQQKPGQPPKLLIYWASTLAYGVPSRFSGSGSGTDFTLTISSLQPEDAATYYCAGGYGGGRYAFGQGTKVEIKRTVAAPSVFIFPPSDEQLKSGTASVVCLLNNFYPREAKVQWKVDNALQSGNSQESVTEQDSKDSTYSLSSTLTLSKADYEKHKVYACEVTHQGLSSPVTKSFNRGEC
notes: as for B1
Question: How did the Kd [5] turn out when B6 was run?
Answer: 6.7 µM

Question: What about the Kd [2] of the same binder?
Answer: 28 nM

Question: What about the Kd [3] of the same binder?
Answer: 830 nM

Question: What about the Kd [8] of the same binder?
Answer: 2100 nM

Question: What about the Kd [6] of the same binder?
Answer: 1100 nM
